Laboratory results taken from IntAct's records for PubMed 19696174.

B1: Age-related maculopathy susceptibility protein 2 (Homo sapiens), P0C7Q2 (parent)
chain: MLRLYPGPMVTEAEGKGGPEMASLSSSVVPVSFISTLRESVLDPGVGGEGASDKQRSKLSLSHSMIPAAKIHTELCLPAFFSPAGTQRRFQQPQHHLTLSIIHTAAR
partner: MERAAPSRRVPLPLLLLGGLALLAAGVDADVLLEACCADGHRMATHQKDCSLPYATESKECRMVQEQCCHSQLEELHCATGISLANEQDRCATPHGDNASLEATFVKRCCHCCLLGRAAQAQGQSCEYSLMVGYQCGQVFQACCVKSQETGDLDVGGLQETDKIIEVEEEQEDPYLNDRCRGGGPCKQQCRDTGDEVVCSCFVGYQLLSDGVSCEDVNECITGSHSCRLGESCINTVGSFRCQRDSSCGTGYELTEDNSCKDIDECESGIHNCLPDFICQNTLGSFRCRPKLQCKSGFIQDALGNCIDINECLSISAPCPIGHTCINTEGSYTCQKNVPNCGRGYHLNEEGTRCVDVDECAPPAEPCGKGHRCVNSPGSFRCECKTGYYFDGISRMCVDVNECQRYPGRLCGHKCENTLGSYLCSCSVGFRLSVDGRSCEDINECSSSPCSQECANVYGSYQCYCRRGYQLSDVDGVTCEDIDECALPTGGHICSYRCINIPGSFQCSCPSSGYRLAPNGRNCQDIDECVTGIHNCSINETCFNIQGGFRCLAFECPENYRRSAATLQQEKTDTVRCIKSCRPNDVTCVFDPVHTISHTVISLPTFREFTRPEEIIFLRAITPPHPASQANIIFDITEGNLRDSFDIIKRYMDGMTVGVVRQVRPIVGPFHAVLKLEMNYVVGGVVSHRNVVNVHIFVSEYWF
B2: Age-related maculopathy susceptibility protein 2 (Homo sapiens), P0C7Q2 (parent)
chain: B1 chain

What was measured:
[1] = variants of: B1; details: with fbln1_human FBLN1, P23142
[2] = variants of: B2; details: with psg11_human PSG11, Q9UQ72
[3] = variants of: B2; details: with co1a1_human COL1A1, P02452
[4] = variants of: B2; details: with finc_human FN1, P02751
[5] = variants of: B2; details: with co4a2_human COL4A2, P08572
[6] = variants of: B2; details: with emil2_human EMILIN2, Q9BXX0
[7] = variants of: B2; details: with hmcn1_human HMCN1, Q96RW7
[8] = variants of: B2; details: with psg9_human PSG9, Q00887

Measured: effect of a mutation on the interaction

Sequence of finc_human FN1, P02751 (P02751 whole entry): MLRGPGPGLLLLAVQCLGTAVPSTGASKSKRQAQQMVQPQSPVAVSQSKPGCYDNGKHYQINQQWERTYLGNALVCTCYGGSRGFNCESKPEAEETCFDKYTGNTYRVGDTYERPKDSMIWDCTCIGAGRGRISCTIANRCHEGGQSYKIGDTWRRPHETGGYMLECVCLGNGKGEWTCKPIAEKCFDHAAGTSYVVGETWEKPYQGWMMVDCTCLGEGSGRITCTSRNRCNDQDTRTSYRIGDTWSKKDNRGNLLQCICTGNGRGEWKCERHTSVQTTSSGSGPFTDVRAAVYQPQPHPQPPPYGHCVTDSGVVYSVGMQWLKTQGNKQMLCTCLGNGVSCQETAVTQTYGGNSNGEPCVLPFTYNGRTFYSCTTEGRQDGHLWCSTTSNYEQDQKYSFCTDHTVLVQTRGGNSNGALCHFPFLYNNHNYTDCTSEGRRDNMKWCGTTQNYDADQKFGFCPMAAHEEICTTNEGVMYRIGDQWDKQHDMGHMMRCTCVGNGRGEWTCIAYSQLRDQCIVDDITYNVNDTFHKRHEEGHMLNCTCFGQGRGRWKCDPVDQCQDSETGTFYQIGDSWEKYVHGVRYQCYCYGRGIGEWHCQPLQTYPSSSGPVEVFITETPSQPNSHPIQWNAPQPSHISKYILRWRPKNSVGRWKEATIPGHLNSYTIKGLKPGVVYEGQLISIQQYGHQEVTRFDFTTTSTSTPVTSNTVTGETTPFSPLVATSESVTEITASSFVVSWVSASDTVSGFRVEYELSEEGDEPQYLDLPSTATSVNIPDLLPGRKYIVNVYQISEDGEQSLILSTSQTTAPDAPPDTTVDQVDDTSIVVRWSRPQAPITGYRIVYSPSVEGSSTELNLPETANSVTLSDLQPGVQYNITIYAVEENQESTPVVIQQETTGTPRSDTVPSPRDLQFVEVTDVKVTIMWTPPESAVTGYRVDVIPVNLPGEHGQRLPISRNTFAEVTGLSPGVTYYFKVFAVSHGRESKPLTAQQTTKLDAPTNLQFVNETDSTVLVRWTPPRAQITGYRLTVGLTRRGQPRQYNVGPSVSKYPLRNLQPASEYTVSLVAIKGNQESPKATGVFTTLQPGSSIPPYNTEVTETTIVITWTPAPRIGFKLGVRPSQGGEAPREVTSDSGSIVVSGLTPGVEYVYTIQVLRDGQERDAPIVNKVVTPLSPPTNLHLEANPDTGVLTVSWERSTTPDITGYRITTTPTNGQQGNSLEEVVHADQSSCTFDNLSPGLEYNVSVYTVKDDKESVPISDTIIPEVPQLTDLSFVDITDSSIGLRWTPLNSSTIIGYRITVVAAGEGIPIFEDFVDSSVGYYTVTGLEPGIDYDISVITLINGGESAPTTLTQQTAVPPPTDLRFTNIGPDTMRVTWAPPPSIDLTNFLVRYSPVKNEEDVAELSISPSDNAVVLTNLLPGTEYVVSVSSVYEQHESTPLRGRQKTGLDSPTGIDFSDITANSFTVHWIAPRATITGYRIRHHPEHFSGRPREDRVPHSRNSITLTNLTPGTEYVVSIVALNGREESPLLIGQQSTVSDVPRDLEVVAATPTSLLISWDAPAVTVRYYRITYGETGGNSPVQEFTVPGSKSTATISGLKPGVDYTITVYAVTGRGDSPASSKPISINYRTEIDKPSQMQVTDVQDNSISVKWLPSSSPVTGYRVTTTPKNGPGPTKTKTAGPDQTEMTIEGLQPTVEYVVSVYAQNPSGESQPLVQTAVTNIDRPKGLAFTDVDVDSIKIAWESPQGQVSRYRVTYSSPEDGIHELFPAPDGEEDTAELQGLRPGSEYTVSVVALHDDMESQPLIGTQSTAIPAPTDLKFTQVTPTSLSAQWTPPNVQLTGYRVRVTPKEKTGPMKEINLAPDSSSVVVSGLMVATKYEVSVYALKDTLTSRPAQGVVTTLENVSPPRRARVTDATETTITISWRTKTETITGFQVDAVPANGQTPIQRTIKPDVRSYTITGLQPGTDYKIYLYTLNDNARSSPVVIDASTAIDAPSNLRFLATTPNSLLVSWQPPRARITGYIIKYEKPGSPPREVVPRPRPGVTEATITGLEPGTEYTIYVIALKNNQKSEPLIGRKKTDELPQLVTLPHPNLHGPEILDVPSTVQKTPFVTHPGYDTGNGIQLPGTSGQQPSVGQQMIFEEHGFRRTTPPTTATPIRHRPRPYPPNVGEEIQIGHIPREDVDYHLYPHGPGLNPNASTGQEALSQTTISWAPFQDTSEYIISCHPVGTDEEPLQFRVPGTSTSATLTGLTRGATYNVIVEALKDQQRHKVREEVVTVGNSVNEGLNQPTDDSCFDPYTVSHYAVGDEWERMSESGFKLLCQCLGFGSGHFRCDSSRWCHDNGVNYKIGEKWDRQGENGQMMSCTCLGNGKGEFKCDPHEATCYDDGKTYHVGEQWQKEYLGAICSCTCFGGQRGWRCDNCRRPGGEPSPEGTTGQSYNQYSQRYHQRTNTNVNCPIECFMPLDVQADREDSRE
Sequence of co4a2_human COL4A2, P08572 (P08572 whole entry): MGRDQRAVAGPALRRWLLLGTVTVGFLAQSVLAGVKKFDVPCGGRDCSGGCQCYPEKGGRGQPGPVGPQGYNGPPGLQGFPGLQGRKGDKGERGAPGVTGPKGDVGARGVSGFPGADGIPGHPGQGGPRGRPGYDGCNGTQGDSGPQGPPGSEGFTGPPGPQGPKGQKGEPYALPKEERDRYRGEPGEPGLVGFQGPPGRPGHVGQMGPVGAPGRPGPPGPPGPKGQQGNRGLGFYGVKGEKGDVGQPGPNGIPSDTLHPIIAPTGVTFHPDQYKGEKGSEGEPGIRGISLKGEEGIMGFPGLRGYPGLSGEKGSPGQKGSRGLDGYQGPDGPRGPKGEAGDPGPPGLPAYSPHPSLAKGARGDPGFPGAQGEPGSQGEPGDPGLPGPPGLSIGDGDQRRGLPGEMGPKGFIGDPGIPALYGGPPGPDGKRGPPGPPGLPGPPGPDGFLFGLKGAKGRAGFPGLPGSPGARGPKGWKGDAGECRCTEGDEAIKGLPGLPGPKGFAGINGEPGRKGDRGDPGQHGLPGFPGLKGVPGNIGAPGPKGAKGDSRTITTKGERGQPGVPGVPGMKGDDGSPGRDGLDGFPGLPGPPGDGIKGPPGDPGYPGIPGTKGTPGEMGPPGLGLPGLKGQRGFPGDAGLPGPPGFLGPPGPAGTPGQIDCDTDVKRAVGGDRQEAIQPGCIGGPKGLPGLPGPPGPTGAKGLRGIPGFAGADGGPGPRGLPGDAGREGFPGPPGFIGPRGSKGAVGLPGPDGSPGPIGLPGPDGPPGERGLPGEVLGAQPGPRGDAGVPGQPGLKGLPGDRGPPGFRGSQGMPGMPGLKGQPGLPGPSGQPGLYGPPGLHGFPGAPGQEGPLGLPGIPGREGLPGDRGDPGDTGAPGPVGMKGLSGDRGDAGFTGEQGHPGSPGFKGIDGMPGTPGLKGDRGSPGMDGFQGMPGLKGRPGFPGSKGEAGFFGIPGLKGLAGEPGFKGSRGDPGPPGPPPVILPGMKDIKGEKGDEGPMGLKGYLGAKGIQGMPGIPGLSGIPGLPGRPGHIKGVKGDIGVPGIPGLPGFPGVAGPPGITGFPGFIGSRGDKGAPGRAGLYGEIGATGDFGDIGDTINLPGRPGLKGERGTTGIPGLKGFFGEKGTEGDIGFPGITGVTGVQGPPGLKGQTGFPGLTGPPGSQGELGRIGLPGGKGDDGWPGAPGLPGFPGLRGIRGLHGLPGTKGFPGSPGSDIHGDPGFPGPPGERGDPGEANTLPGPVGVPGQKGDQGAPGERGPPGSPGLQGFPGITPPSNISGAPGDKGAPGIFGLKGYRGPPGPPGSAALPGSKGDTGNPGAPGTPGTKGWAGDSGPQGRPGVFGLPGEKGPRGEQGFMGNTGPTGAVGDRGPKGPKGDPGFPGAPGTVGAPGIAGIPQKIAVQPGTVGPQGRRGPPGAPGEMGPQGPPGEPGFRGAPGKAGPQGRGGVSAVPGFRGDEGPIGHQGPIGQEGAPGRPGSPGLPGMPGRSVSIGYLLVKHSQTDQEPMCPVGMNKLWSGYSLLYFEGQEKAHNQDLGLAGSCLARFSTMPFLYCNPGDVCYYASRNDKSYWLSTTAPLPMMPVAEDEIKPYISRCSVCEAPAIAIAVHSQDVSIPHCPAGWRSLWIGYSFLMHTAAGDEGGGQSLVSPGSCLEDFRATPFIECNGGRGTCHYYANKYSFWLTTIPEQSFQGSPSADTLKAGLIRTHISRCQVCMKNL
Sequence of psg9_human PSG9, Q00887 (Q00887 whole entry): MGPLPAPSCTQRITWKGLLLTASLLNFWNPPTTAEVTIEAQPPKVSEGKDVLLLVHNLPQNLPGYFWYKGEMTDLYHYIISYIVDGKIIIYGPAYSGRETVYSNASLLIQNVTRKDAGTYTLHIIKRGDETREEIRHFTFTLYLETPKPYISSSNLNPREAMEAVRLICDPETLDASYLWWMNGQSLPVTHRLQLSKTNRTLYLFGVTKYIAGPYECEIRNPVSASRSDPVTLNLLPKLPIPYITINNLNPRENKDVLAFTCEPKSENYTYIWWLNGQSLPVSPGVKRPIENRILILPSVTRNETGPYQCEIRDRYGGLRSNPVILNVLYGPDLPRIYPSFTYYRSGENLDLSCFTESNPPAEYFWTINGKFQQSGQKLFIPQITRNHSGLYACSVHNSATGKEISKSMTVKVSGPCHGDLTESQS
Sequence of psg11_human PSG11, Q9UQ72 (Q9UQ72 whole entry): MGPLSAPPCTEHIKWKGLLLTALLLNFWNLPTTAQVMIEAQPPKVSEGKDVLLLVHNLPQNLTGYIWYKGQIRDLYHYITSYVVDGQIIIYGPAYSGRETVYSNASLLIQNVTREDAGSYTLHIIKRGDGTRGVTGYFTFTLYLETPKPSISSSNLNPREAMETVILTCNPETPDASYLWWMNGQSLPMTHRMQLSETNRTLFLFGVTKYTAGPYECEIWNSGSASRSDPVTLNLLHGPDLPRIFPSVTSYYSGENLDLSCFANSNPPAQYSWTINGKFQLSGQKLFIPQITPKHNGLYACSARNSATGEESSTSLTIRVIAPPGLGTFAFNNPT

MLRLYPGPMVTEAEGKGGPEMASLSSSVVPVSFISTLRESVLDPGVGGEGASDKQRSKLSLSHSMIPASKIHTELCLPAFFSPAGTQRRFQQPQHHLTLSIIHTAAR [A69S]
with no effect: [1]

MLRLYPGPMVTEAEGKGGPEMASLSSSVVPVSFISTLRESVLDPGVGGEGASDKQRSKLSLSHSMIPASKIHTELCLPAFFSPAGTQRRFQQPQHHLTLSIIHTAAR [A69S]
not listed: [1]
with no effect: all other assays above
